Substrate in the data set: Nc1ncnc2c1ncn2[C@@H]1O[C@H](COP(=O)(O)OP(=O)(O)OP(=O)(O)O)[C@@H](O)[C@H]1O
The experiment in a line: ATPase assay coupled to NADH oxidation. Type of data set: biochemical, Escherichia coli. The conditions noted are these: 5 μM MutS, 3.125-500 μM ATP.

Where a chain is given by its changes, count along the chain named. Names may count otherwise.

Broadly, the Km is the concentration of substrate that gives half-maximal velocity. In general, kcat refers to the maximal rate divided by the concentration of active sites.

B1: WT MutS (Escherichia coli K-12) (protein)
chain: MSAIENFDAHTPMMQQYLRLKAQHPEILLFYRMGDFYELFYDDAKRASQLLDISLTKRGASAGEPIPMAGIPYHAVENYLAKLVNQGESVAICEQIGDPATSKGPVERKVVRIVTPGTISDEALLQERQDNLLAAIWQDSKGFGYATLDISSGRFRLSEPADRETMAAELQRTNPAELLYAEDFAEMSLIEGRRGLRRRPLWEFEIDTARQQLNLQFGTRDLVGFGVENAPRGLCAAGCLLQYAKDTQRTTLPHIRSITMEREQDSIIMDAATRRNLEITQNLAGGAENTLASVLDCTVTPMGSRMLKRWLHMPVRDTRVLLERQQTIGALQDFTAGLQPVLRQVGDLERILARLALRTARPRDLARMRHAFQQLPELRAQLETVDSAPVQALREKMGEFAELRDLLERAIIDTPPVLVRDGGVIASGYNEELDEWRALADGATDYLERLEVRERERTGLDTLKVGFNAVHGYYIQISRGQSHLAPINYMRRQTLKNAERYIIPELKEYEDKVLTSKGKALALEKQLYEELFDLLLPHLEALQQSASALAELDVLVNLAERAYTLNYTCPTFIDKPGIRITEGRHPVVEQVLNEPFIANPLNLSPQRRMLIITGPNMGGKSTYMRQTALIALMAYIGSYVPAQKVEIGPIDRIFTRVGAADDLASGRSTFMVEMTETANILHNATEYSLVLMDEIGRGTSTYDGLSLAWACAENLANKIKALTLFATHYFELTQLPEKMEGVANVHLDALEHGDTIAFMHSVQDGAASKSYGLAVAALAGVPKEVIKRARQKLRELESISPNAAATQVDGTQMSLLSVPEETSPAVEALENLDPDSLTPRQALEWIYRLKSLV
notes: full-length MutS from mutS gene in pET-3D, recombinant, purified; homodimer (can form tetramers)
B1: the Km is 8.1 ± 0.7 µM and the kcat was found to be 0.138 ± 0.0033 s⁻¹.

B2: WT MutS (Escherichia coli K-12; I597A/M759D/P595A) (protein)
chain: B1 chain with P595A, I597A, M759D
notes: as for B1
B2: the Km worked out at 9.5 ± 1 µM and the kcat was 0.0633 ± 0.0017 s⁻¹.

(Values after paper PMC4521584.)
